This is an account of results in publication PMC5019145 (Molecular microbiology, 2015).

Test [1] addresses SaFlaH (Sulfolobus acidocaldarius, UniProt Q4J9K9, D122N). Nature of the test: fluorescence titration. The test is classed as binding. The note with it: 1 µM protein, 5 mM MnCl2, pH 6.2, 25 °C; labelled compound.
For test [2], the target named is SaFlaH (Sulfolobus acidocaldarius, UniProt Q4J9K9, K33A). In words: fluorescence titration. The test is classed as binding. The settings on record: 1 µM protein, 5 mM MnCl2, pH 6.2, 25 °C; labelled compound.
Sequence of SaFlaH (Sulfolobus acidocaldarius, UniProt Q4J9K9, K33A) (Q4J9K9 whole entry K33A): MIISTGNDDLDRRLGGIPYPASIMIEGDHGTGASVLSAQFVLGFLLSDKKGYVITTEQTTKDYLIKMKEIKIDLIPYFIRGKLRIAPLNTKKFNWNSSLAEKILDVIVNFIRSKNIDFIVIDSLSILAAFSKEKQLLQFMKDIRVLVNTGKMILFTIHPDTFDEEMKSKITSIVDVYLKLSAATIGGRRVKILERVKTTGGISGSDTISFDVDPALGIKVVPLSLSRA
Test [3] deals with Pyrococcus furiosus FlaH, wild type (PfFlaH) (Pyrococcus furiosus). In words: MST.
Test [4] concerns the target T1, StrepII-tagged Sulfolobus acidocaldarius FlaH (StrepII-FlaH) (Sulfolobus acidocaldarius, UniProt Q4J9K9 1-228).
T1 sequence: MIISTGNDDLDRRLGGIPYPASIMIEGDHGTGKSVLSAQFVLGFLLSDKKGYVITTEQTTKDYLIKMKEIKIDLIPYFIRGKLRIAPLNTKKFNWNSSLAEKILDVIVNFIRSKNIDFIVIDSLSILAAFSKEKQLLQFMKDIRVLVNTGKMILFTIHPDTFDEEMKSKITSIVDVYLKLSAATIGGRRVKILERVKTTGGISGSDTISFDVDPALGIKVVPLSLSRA
In words: pull-down.

Sequence of SaFlaH (Sulfolobus acidocaldarius, UniProt Q4J9K9, D122N) (Q4J9K9 whole entry D122N): as the sequence (Q4J9K9 whole entry K33A) above, with A33K, D122N counted along it

Consider `CNc1ccccc1C(=O)O[C@H]1[C@@H](O)[C@H](n2cnc3c(N)ncnc32)O[C@@H]1COP(=O)(O)OP(=O)(O)OP(=O)(O)O` (mixture of isomers) [MANT-ATP, 2’-/3’-O-(N’-methylanthraniloyl) adenosine-5’-O-triphosphate], for which the “fluorescence titration (FRET from tryptophan to MANT)” value at SaFlaH [1] was “SaFlaH^K33A and SaFlaH^D122N only bound MANT-ATP with strongly reduced affinity”; at SaFlaH [2], “SaFlaH^K33A and SaFlaH^D122N only bound MANT-ATP with strongly reduced affinity”.

For the molecule “Pyrococcus furiosus FlaI (PfFlaI) (enzyme)”, the Kd (commonly the constant that tells how readily two partners part at equilibrium) in test [3] was 1000 nM.

B1: His6-tagged Sulfolobus acidocaldarius FlaXc (FlaX without its first 37 residues) (domain or fragment, UniProt Q4J9K6 38-250, looked up)
chain: KRVQTQQSPQNISQEQRFPTQQKPANDETSKYSSDSIEKALKDVLGKMDKKENELLTNITNSFNEMKKLIENLNSAVEELALSVKASESDSSSPFNTIIQQEEEHVSREISTVSQLVGSNNPNNVNLTWFIKSCVLLEIMEYDEEKIKQLYELGYVSSDDMFTILRILSFIKNRKITAKELASIAANIAESYSSLTPEIKKYIMILEGGGVNG
Consider B1, for which the binding result in test [4] is “binds”.

B2: His6-tagged Sulfolobus acidocaldarius FlaXcc1 (FlaXc without the N-terminal domain 38-86) (domain or fragment, UniProt Q4J9K6 87-250, looked up)
chain: KKENELLTNITNSFNEMKKLIENLNSAVEELALSVKASESDSSSPFNTIIQQEEEHVSREISTVSQLVGSNNPNNVNLTWFIKSCVLLEIMEYDEEKIKQLYELGYVSSDDMFTILRILSFIKNRKITAKELASIAANIAESYSSLTPEIKKYIMILEGGGVNG
As for B2, in test [4], the binding result is on record as “binds”.
